{
  "source": "the RNAGym collection of RNA variant scans (doi:10.7554/elife.80360)",
  "parents": {"B1": {"name": "CPEB3 Ribozyme (parent)", "chain": "GGGGGCCACAGCAGAAGCGUUCACGUCGCGGCCCCUGUCAGAUUCUGGUGAAUCUGCGAAUUCUGCUGU"}},
  "data": [
    {"variants_of": "B1", "test": "self-cleavage, relative activity (ratio to wild type); higher = more cleavage; co-transcriptional", "values": [
      {"variant": "G25A C39A", "self-cleavage": 0.237},
      {"variant": "G25A C39U", "self-cleavage": 0.229},
      {"variant": "G25A C39G", "self-cleavage": 0.16},
      {"variant": "G25U C29A", "self-cleavage": 0.198},
      {"variant": "G25U C29G", "self-cleavage": 0.161},
      {"variant": "G25A U55C", "self-cleavage": 0.152},
      {"variant": "G25A U55G", "self-cleavage": 0.235},
      {"variant": "G25A C29A", "self-cleavage": 0.181},
      {"variant": "G25A C29U", "self-cleavage": 0.163},
      {"variant": "G25A C29G", "self-cleavage": 0.216},
      {"variant": "G25A U49G", "self-cleavage": 0.207},
      {"variant": "G25A U49C", "self-cleavage": 0.219},
      {"variant": "G25U U69C", "self-cleavage": 0.263},
      {"variant": "G25U U69G", "self-cleavage": 0.183},
      {"variant": "U26A C33G", "self-cleavage": 0.395},
      {"variant": "C24U U44G", "self-cleavage": 0.703},
      {"variant": "C24U U44A", "self-cleavage": 0.687},
      {"variant": "C24U U44C", "self-cleavage": 0.633},
      {"variant": "G25A C34U", "self-cleavage": 0.185},
      {"variant": "G25A C34A", "self-cleavage": 0.196},
      {"variant": "G25C G30U", "self-cleavage": 0.193},
      {"variant": "G25C G30A", "self-cleavage": 0.25},
      {"variant": "G25C G30C", "self-cleavage": 0.171},
      {"variant": "G25C U53G", "self-cleavage": 0.106},
      {"variant": "G25C U53C", "self-cleavage": 0.0815},
      {"variant": "G25A C32G", "self-cleavage": 0.131},
      {"variant": "G25A C32U", "self-cleavage": 0.255},
      {"variant": "G25C U38C", "self-cleavage": 0.166},
      {"variant": "G25C U38G", "self-cleavage": 0.187},
      {"variant": "G25C U38A", "self-cleavage": 0.176},
      {"variant": "G25U U55A", "self-cleavage": 0.154},
      {"variant": "G25U U55G", "self-cleavage": 0.146},
      {"variant": "G25C U61G", "self-cleavage": 0.176},
      {"variant": "G25U G41A", "self-cleavage": 0.112},
      {"variant": "G25C G48U", "self-cleavage": 0.186},
      {"variant": "G25C G48A", "self-cleavage": 0.16},
      {"variant": "G25A C63U", "self-cleavage": 0.166},
      {"variant": "G25A G58C", "self-cleavage": 0.159},
      {"variant": "G25A G58A", "self-cleavage": 0.22},
      {"variant": "G25A G58U", "self-cleavage": 0.218},
      {"variant": "G25C U43G", "self-cleavage": 0.188},
      {"variant": "G25C U43C", "self-cleavage": 0.164},
      {"variant": "G25U C54A", "self-cleavage": 0.125},
      {"variant": "G25U C54U", "self-cleavage": 0.121},
      {"variant": "G25U C54G", "self-cleavage": 0.115},
      {"variant": "G25U G47C", "self-cleavage": 0.11},
      {"variant": "G25C U46A", "self-cleavage": 0.18},
      {"variant": "G25C U46G", "self-cleavage": 0.192},
      {"variant": "G25A U53C", "self-cleavage": 0.206},
      {"variant": "G25A U53A", "self-cleavage": 0.171},
      {"variant": "G25A U53G", "self-cleavage": 0.169},
      {"variant": "U26A A40G", "self-cleavage": 0.7},
      {"variant": "U26A A40C", "self-cleavage": 0.32},
      {"variant": "G25U C45U", "self-cleavage": 0.156},
      {"variant": "G25U C45A", "self-cleavage": 0.181},
      {"variant": "G25U G28A", "self-cleavage": 0.141},
      {"variant": "G25U G28C", "self-cleavage": 0.159},
      {"variant": "G25C A42G", "self-cleavage": 0.194},
      {"variant": "G25C A42U", "self-cleavage": 0.203},
      {"variant": "G25C A42C", "self-cleavage": 0.187},
      {"variant": "G25U C33U", "self-cleavage": 0.137},
      {"variant": "G25U C33A", "self-cleavage": 0.175},
      {"variant": "G25U C33G", "self-cleavage": 0.128},
      {"variant": "G25A A51G", "self-cleavage": 0.22},
      {"variant": "G25A A51U", "self-cleavage": 0.166},
      {"variant": "G25A A40C", "self-cleavage": 0.178},
      {"variant": "G25A A40U", "self-cleavage": 0.153},
      {"variant": "G25A A42G", "self-cleavage": 0.203},
      {"variant": "G25A A42C", "self-cleavage": 0.161},
      {"variant": "G25A A42U", "self-cleavage": 0.178},
      {"variant": "G25A U26C", "self-cleavage": 0.297},
      {"variant": "G25A U26G", "self-cleavage": 0.148},
      {"variant": "G25C C57A", "self-cleavage": 0.14},
      {"variant": "G25U U36C", "self-cleavage": 0.103},
      {"variant": "G25U U36A", "self-cleavage": 0.125},
      {"variant": "G25A U61G", "self-cleavage": 0.219},
      {"variant": "G25A U61C", "self-cleavage": 0.247},
      {"variant": "G25U U46C", "self-cleavage": 0.179},
      {"variant": "G25U U46G", "self-cleavage": 0.205},
      {"variant": "G25U U46A", "self-cleavage": 0.105},
      {"variant": "G25U A51G", "self-cleavage": 0.168},
      {"variant": "G25U A51C", "self-cleavage": 0.212},
      {"variant": "G25U A51U", "self-cleavage": 0.152},
      {"variant": "G25A U36G", "self-cleavage": 0.176},
      {"variant": "G25A U36C", "self-cleavage": 0.292},
      {"variant": "G25A U36A", "self-cleavage": 0.184},
      {"variant": "U26A A52U", "self-cleavage": 0.816},
      {"variant": "U26A A52G", "self-cleavage": 0.825},
      {"variant": "U26A A52C", "self-cleavage": 0.9},
      {"variant": "G25U G50C", "self-cleavage": 0.189},
      {"variant": "G25U G50U", "self-cleavage": 0.151},
      {"variant": "G25U G50A", "self-cleavage": 0.144},
      {"variant": "G25U G65C", "self-cleavage": 0.105},
      {"variant": "G25A A52C", "self-cleavage": 0.253},
      {"variant": "G25A A52G", "self-cleavage": 0.193},
      {"variant": "G25A A52U", "self-cleavage": 0.213},
      {"variant": "G25C G31C", "self-cleavage": 0.143},
      {"variant": "G25C G31U", "self-cleavage": 0.176},
      {"variant": "G25A C66U", "self-cleavage": 0.244},
      {"variant": "G25A C66A", "self-cleavage": 0.196},
      {"variant": "G25A U46A", "self-cleavage": 0.267},
      {"variant": "G25A U46C", "self-cleavage": 0.216},
      {"variant": "G25A G65A", "self-cleavage": 0.189},
      {"variant": "G25U G48A", "self-cleavage": 0.176},
      {"variant": "G25U G48C", "self-cleavage": 0.215},
      {"variant": "G25U G48U", "self-cleavage": 0.155},
      {"variant": "G25U A52G", "self-cleavage": 0.146},
      {"variant": "G25U A52U", "self-cleavage": 0.199},
      {"variant": "G25U A52C", "self-cleavage": 0.246},
      {"variant": "G25U U26C", "self-cleavage": 0.631},
      {"variant": "G25U U26A", "self-cleavage": 0.273},
      {"variant": "G25A A60G", "self-cleavage": 0.171},
      {"variant": "G25A A60U", "self-cleavage": 0.188},
      {"variant": "G25A C57A", "self-cleavage": 0.223},
      {"variant": "G25A C57U", "self-cleavage": 0.205},
      {"variant": "G25C C34A", "self-cleavage": 0.197},
      {"variant": "G25C C34G", "self-cleavage": 0.14},
      {"variant": "G25C C54G", "self-cleavage": 0.162},
      {"variant": "G25C C54A", "self-cleavage": 0.136},
      {"variant": "G25C C54U", "self-cleavage": 0.133},
      {"variant": "C24U U53C", "self-cleavage": 0.53},
      {"variant": "G25C C45G", "self-cleavage": 0.147},
      {"variant": "G25C C45U", "self-cleavage": 0.141},
      {"variant": "U26A A42C", "self-cleavage": 0.797},
      {"variant": "U26A A42G", "self-cleavage": 0.72},
      {"variant": "G25U U53C", "self-cleavage": 0.112},
      {"variant": "G25U U53G", "self-cleavage": 0.226},
      {"variant": "G25U U53A", "self-cleavage": 0.166},
      {"variant": "U26A C32G", "self-cleavage": 0.231},
      {"variant": "U26A C32A", "self-cleavage": 0.422},
      {"variant": "U26A C32U", "self-cleavage": 0.869},
      {"variant": "G25U C66U", "self-cleavage": 0.121},
      {"variant": "C24U U64A", "self-cleavage": 0.42},
      {"variant": "C24U U64C", "self-cleavage": 0.531},
      {"variant": "C24U G56A", "self-cleavage": 0.61},
      {"variant": "C24U G56U", "self-cleavage": 0.528},
      {"variant": "C24U G56C", "self-cleavage": 0.307},
      {"variant": "G25U C39G", "self-cleavage": 0.124},
      {"variant": "G25U C39U", "self-cleavage": 0.151},
      {"variant": "G25C U64A", "self-cleavage": 0.132},
      {"variant": "G25U U62C", "self-cleavage": 0.193},
      {"variant": "G25U U38G", "self-cleavage": 0.205},
      {"variant": "G25U U61G", "self-cleavage": 0.149},
      {"variant": "G25C C32G", "self-cleavage": 0.173},
      {"variant": "G25C C32A", "self-cleavage": 0.147},
      {"variant": "G25U C57G", "self-cleavage": 0.151},
      {"variant": "G25U C57A", "self-cleavage": 0.137},
      {"variant": "G25U C57U", "self-cleavage": 0.15},
      {"variant": "C24U U38C", "self-cleavage": 0.582},
      {"variant": "C24U U38A", "self-cleavage": 0.418},
      {"variant": "G25C G58C", "self-cleavage": 0.234},
      {"variant": "G25C A60G", "self-cleavage": 0.207},
      {"variant": "G25C A60C", "self-cleavage": 0.149},
      {"variant": "C24U U49G", "self-cleavage": 0.762},
      {"variant": "G25U U49C", "self-cleavage": 0.157},
      {"variant": "G25U U49G", "self-cleavage": 0.189},
      {"variant": "G25U C34G", "self-cleavage": 0.196},
      {"variant": "G25U C34U", "self-cleavage": 0.151},
      {"variant": "G25U U44G", "self-cleavage": 0.146},
      {"variant": "G25U U44A", "self-cleavage": 0.136},
      {"variant": "G25U U44C", "self-cleavage": 0.105},
      {"variant": "G25A U67G", "self-cleavage": 0.266},
      {"variant": "G25A U67C", "self-cleavage": 0.133},
      {"variant": "C24U U36G", "self-cleavage": 0.182},
      {"variant": "G25C G65C", "self-cleavage": 0.18},
      {"variant": "G25C G65U", "self-cleavage": 0.151},
      {"variant": "G25A U64G", "self-cleavage": 0.185}
    ]}
  ]
}
